The record followed here is patent publication US20180356429A1.

For assay [1], the target named is Recombinant human IL-13 (R&D Systems, MN, catalog no. 213-ILB/CF) (human) (UniProt P35225). Kind of assay: sandwich pair screen, negative (blank) signal, binder is detection Ab; capture Ab 32116.
Assay [2] shares this target. Kind of assay: sandwich pair screen, 100 pg/mL recombinant IL-13, binder is detection Ab; capture Ab 228B/C.
Assay [3] shares this target. The assay can be described thus: sandwich pair screen, 100 pg/mL recombinant IL-13, binder is detection Ab; capture Ab 14C9.
Assay [4] has the same target. Kind of assay: sandwich pair screen, 100 pg/mL recombinant IL-13, binder is detection Ab; capture Ab 11H4.
The target is the same in assay [5]. The assay can be described thus: sandwich pair screen, 100 pg/mL recombinant IL-13, binder is detection Ab; capture Ab 8C11.
For assay [6] the target is unchanged. The assay can be described thus: sandwich pair screen, negative (blank) signal, binder is detection Ab; capture Ab MILR1444A.
Assay [7] has the same target. Kind of assay: sandwich pair screen, 100 pg/mL recombinant IL-13, binder is detection Ab; capture Ab MILR1444A.
Assay [8] shares this target. The assay can be described thus: sandwich pair screen, negative (blank) signal, binder is detection Ab; capture Ab 4D7.
Assay [9] shares this target. Kind of assay: sandwich pair screen, negative (blank) signal, binder is detection Ab; capture Ab 11H4.
The target is the same in assay [10]. The assay can be described thus: sandwich pair screen, 100 pg/mL recombinant IL-13, binder is detection Ab; capture Ab 32116.
Assay [11] shares this target. Kind of assay: sandwich pair screen, negative (blank) signal, binder is detection Ab; capture Ab 8C11.
Assay [12] shares this target. Kind of assay: sandwich pair screen, negative (blank) signal, binder is detection Ab; capture Ab 228B/C.
Assay [13] shares this target. The assay can be described thus: sandwich pair screen, negative (blank) signal, binder is detection Ab; capture Ab 14C9.
For assay [14] the target is unchanged. The assay can be described thus: sandwich pair screen, 100 pg/mL recombinant IL-13, binder is detection Ab; capture Ab 4D7.

Sequence of Recombinant human IL-13 (R&D Systems, MN, catalog no. 213-ILB/CF) (human) (P35225 other isoform, or with tags, fused parts or gaps): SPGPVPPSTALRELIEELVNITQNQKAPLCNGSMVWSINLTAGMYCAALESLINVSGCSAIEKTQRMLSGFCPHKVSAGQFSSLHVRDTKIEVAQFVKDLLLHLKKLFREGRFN

B1: 228B/C (antibody, from a related filing, V domains shown)
VH: QVQLQESGPGLVAPSQSLSITCTVSGFSLNAYSVNWVRQPPGKGLEWLGMIWGDGKIVYNSALKSRLNISKDSSKSQVFLKMSSLQSDDTARYYCAGDGYYPYAMDNWGHGTSVTVSS
VL: NIVLTQSPASLAVSLGQRATISCRASKSVDSYGNSFMHWYQQKPGQPPKLLIYLASNLESGVPARFSGSGSRTDFTLTIDPVEADDAASYYCQQNNEDPRTFGGGTKLEIK
On to B1, for which the Assay Signal Neg (blank) came out at 15.2 in [1]; 5.4 in assay [6]; 24.7 in assay [8]; 22.4 in assay [9]; 3.9 in [11]; 26.6 in assay [12]. Also, in [13], the Assay Signal Neg (blank) was found to be 29. The Assay Signal Pos in [2] is 27.7; in assay [3] it was 70.3; in assay [4] it was 9540; in [5], 25.4; in assay [7], 6; in [10] it was 126. In addition, the Assay Signal Pos in assay [14] was 29.9.
